The experiment has as its target native mVDAC1-GFP (mouse) (UniProt Q60932). The experiment in a line: cell-based or functional assay.

Where only a bound is given, the exact number is not on record here.

Sequence of native mVDAC1-GFP (mouse) (Q60932 14-296): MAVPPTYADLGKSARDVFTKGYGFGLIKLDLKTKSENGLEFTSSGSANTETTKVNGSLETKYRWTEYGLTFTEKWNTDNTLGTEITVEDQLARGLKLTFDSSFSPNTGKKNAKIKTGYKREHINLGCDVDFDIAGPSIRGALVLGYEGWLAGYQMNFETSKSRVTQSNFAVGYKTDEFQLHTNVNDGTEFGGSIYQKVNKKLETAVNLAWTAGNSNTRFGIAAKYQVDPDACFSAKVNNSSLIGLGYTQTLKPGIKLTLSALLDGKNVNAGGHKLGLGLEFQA

Regarding “recombinant HK-I over-expressed in cells (pcDNA3.1-HisA-HK-I) (enzyme)”, the apoptotic cell death of cells over-expressing HK-I and mVDAC1-GFP is less than 10%.

(Values after US20120214741A1.)
